Assay results published in US20050048066A1, “Identification of potential immunodominant acetylcholine receptor alpha subunit” (priority 2000, published 2005).

How the values were obtained:
[1] = molecular target: HLA-DR2 (a mix of DRB1*1501 and DRB5*0101) (Homo sapiens, UniProt P01903+P01911+Q30154); test: DELFIA competitive binding assay, solubilized HLA-DR2; conditions: in words, from IC50 / plot of 1/IC50
Text: Measurement of the IC50 is preferably done by europium-streptavidin dissociation-enhanced lenthanide fluoroimmunoassay (DELFIA) and the IC50 typically calculated by four parameter fit analysis with the software program SOFTmax Pro.

[2] = system: HLA-DR3 (a mix of DRB1*0301 and DRB3*0101); test: DELFIA competitive binding assay, solubilized HLA-DR3; set-up: species or system human; conditions: in words, from IC50
Experimental: The sequence of the AChRα subunit is shown with each of the transmembrane regions (M1-M4) indicated by a shaded box.) Ten-fold dilutions (preferably 1-100,000 nM) of unlabeled AChRα peptides were co-incubated at pH 5.5 with the biotinylated myelin basic protein peptide MBP 84-102, and the IC50 of binding to solubilized HLA-DR2 (a mix of DRB1*1501 and DRB5*0101) or HLA-DR3 (a mix of DRB1*0301 and DRB3*0101) was measured. Measurement of the IC50 is preferably done by europium-streptavidin dissociation-enhanced lenthanide fluoroimmunoassay (DELFIA) and the IC50 typically calculated by four parameter fit analysis with the software program SOFTmax Pro. FIG. 2 lists the IC50s of each AChRα peptide binding to HLA-DR2 and HLA-DR3.

Substance: AChRα 113-126: synthetic peptide fragment of the acetylcholine receptor α subunit, residues 113-126 (TGHITWTPPAIFKS)
- relative affinity for HLA-DR2 [1]: high relative affinity

Substance: AChRα 145-163: synthetic peptide fragment of the acetylcholine receptor α subunit, residues 145-163 (KLGTWTYDGSVVAINPESD)
- affinity for HLA-DR3 [2]: high affinity

Substance: AChRα 195-212: synthetic peptide fragment of the acetylcholine receptor α subunit, residues 195-212
- affinity for HLA-DR3 [2]: high affinity

Substance: AChRα 310-327: synthetic peptide fragment of the acetylcholine receptor α subunit, residues 310-327 (NWVRKVFIDTIPNIMFFS)
- relative affinity for HLA-DR2 [1]: high relative affinity

Substance: AChRα 419-437: synthetic peptide fragment of the acetylcholine receptor α subunit, residues 419-437 (IIGTLAVFAGRLIELNQQG)
- relative affinity for HLA-DR2 [1]: high relative affinity
